B1: Potassium voltage-gated channel protein eag (Drosophila melanogaster (Fruit fly)), Q02280 (parent)
chain: MPGGRRGLVAPQNTFLENIIRRSNSQPDSSFLLANAQIVDFPIVYCNESFCKISGYNRAEVMQKSCRYVCGFMYGELTDKETVGRLEYTLENQQQDQFEILLYKKNNLQCGCALSQFGKAQTQETPLWLLLQVAPIRNERDLVVLFLLTFRDITALKQPIDSEDTKGVLGLSKFAKLARSVTRSRQFSAHLPTLKDPTKQSNLAHMMSLSADIMPQYRQEAPKTPPHILLHYCAFKAIWDWVILCLTFYTAIMVPYNVAFKNKTSEDVSLLVVDSIVDVIFFIDIVLNFHTTFVGPGGEVVSDPKVIRMNYLKSWFIIDLLSCLPYDVFNAFDRDEDGIGSLFSALKVVRLLRLGRVVRKLDRYLEYGAAMLILLLCFYMLVAHWLACIWYSIGRSDADNGIQYSWLWKLANVTQSPYSYIWSNDTGPELVNGPSRKSMYVTALYFTMTCMTSVGFGNVAAETDNEKVFTICMMIIAALLYATIFGHVTTIIQQMTSATAKYHDMLNNVREFMKLHEVPKALSERVMDYVVSTWAMTKGLDTEKVLNYCPKDMKADICVHLNRKVFNEHPAFRLASDGCLRALAMHFMMSHSAPGDLLYHTGESIDSLCFIVTGSLEVIQDDEVVAILGKGDVFGDQFWKDSAVGQSAANVRALTYCDLHAIKRDKLLEVLDFYSAFANSFARNLVLTYNLRHRLIFRKVADVKREKELAERRKNEPQLPQNQDHLVRKIFSKFRRTPQVQAGSKELVGGSGQSDVEKGDGEVERTKVFPKAPKLQASQATLARQDTIDEGGEVDSSPPSRDSRVVIEGAAVSSATVGPSPPVATTSSAAAGAGVSGGPGSGGTVVAIVTKADRNLALERERQIEMASSRATTSDTYDTGLRETPPTLAQRDLIATVLDMKVDVRLELQRMQQRIGRIEDLLGELVKRLAPGAGSGGNAPDNSSGQTTPGDEICAGCGAGGGGTPTTQAPPTSAVTSPVDTVITISSPGASGSGSGTGAGAGSAVAGAGGAGLLNPGATVVSSAGGNGLGPLMLKKRRSKSRKAPAPPKQTLASTAGTATAAPAGVAGSGMTSSAPASADQQQQHQSTADQSPTTPGAELLHLRLLEEDFTAAQLPSTSSGGAGGGGGSGSGATPTTPPPTTAGGSGSGTPTSTTATTTPTGSGTATRGKLDFL
partner: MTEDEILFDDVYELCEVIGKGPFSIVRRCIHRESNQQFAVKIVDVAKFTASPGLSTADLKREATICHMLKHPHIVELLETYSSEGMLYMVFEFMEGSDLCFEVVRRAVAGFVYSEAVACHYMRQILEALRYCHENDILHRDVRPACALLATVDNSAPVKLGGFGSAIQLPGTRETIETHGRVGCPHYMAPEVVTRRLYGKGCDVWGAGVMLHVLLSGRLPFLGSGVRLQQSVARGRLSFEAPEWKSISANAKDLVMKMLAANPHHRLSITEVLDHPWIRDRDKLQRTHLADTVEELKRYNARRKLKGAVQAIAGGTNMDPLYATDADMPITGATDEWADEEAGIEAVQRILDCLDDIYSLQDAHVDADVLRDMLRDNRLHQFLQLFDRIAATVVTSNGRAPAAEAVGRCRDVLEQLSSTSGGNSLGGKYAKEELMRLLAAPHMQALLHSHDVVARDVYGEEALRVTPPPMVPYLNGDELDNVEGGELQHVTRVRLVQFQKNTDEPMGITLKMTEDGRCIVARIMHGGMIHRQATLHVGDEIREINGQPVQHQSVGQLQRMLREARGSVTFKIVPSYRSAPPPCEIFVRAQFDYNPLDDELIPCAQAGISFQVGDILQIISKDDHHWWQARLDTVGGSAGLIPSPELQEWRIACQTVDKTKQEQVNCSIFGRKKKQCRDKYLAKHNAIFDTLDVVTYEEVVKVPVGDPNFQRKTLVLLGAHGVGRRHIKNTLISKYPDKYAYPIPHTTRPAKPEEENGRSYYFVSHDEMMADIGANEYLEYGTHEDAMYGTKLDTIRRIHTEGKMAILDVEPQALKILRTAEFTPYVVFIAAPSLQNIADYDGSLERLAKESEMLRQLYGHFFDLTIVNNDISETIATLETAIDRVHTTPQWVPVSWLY

Variants of: B1
Details: with cskp_drome CASK

| Variant | effect of a mutation on the interaction |
| --- | --- |
| R1037L | decreasing interaction |
| K1040M | decreasing interaction |
